Results on 41 variants are retold here after the RNAGym collection of RNA variant scans (doi:10.7554/elife.90254).

First the molecules themselves.
B1: OR4K15 (parent)
chain: GUUAACGGUCAUAGGCCAUGGAAACUAGGAGCACCAUUUCGCUGCCAGUGAAGAAAUGAACAAAGAAAAUCUGGGCCAGGCAGGCAUCAAAAGAAAUAGUCUUGCGCUCAACCAGAAAGUCUGUAAUCAUUUUAAGGGUA

In this data set the parent is B1. Description: self-cleavage, relative activity (ratio to wild type); higher = more cleavage; in vitro, sequencing; the parent is a self-cleaving ribozyme.
Turning to GUUAACGGUCAUGGGCCAUGGAAACUAGGAGCACCAUUUCGCUGCCAGUGAAGAAAUGAACAAAGAAAAUCUGGGCCAGGCAGGCAUCAUAAGAAAUAGUCUUGCGCUCAACCAGAAAGUCUGUAAUCAUUUUAAGGGUA [A13G A90U], the self-cleavage was 0.25.

As for GUUGACGGUCAUAGGCCAAGGAAACUAGGAGCACCAUUUCGCUGCCAGUGAAGAAAUGAACAAAGAAAAUCUGGGCCAGGCAGGCAUCAAAAGAAAUAGUCUUGCGCUCAACCAGAAAGUCUGUAAUCAUUUUAAGGGUA [A4G U19A], the self-cleavage came out at 0.78.

Take GUUAACGGUCAUAGGCCAUGGAAACUAGGAGCACCAUUUCGCCGCCAGUGAAGAAAUGAACAAAGAAAAUCUGGGCCAGGCAGGCAUCAAAAGAAAUAGCCUUGCGCUCAACCAGAAAGUCUGUAAUCAUUUUAAGGGUA [U43C U100C]: the self-cleavage is 2.35.

As to GUUAACGGUCAUAGGCCAUGGAAACUAGGAGCACCAUUUCGCUCCCAGUGAAGAAAUGAACAAAGAAAAUCUGGGCCGGGCAGGCAUCAAAAGAAAUAGUCUUGCGCUCAACCAGAAAGUCUGUAAUCAUUUUAAGGGUA [G44C A78G], the self-cleavage amounted to 0.52.

GUUAACGGUCAUAGGCCAUGGAAACUAGGAGCACCAUUUCGCUGCCAGUGAAGAAAUGAACAAUGAAAAUCUGGGCCAGGCAGGCAUCAAAAGAAAUAGUCUUGCGCUCAGCCAGAAAGUCUGUAAUCAUUUUAAGGGUA [A64U A111G]: the self-cleavage is 0.04.

In the case of GUUAACGGCCAUAGGCCAUGGAAACUAGGAGCACCAUUUCGCUGCCAGUGAAGAAAUGAACAAAGAAAAUCUGGGCCAGGCAGGCAUCAAAAGAAAUAGUCUUGCGCGCAACCAGAAAGUCUGUAAUCAUUUUAAGGGUA [U9C U108G], the self-cleavage was 0.06.

Consider GUUAACGGUCAAAGGCCAUGGAAACUAGGAGCACCAUUUCGCUGCCAGUGAAGAAAUGAACAAAGAAAAUCUGGGCCAGGCAGGCAUCAAAAGAAAUAGUCUUGCGCUCCACCAGAAAGUCUGUAAUCAUUUUAAGGGUA [U12A A110C], for which the self-cleavage was found to be 0.34.

Regarding GUUAACGGUCAUAGGCCAUGGAAACUAGGAGCACCAUUUCGCUGCCAGUGAAGAAAUGAACAAAGAAAAUCUGGGCCAGGCAGGCACCAAAAGAAAUAGUCUUGCGCUCAACCAGUAAGUCUGUAAUCAUUUUAAGGGUA [U87C A116U], the self-cleavage was 0.17.

GUUAACGGUCACAGGCCAUGGAAACUAGGAGCACCAUUUCGCUGCCAGUGAAGAAACGAACAAAGAAAAUCUGGGCCAGGCAGGCAUCAAAAGAAAUAGUCUUGCGCUCAACCAGAAAGUCUGUAAUCAUUUUAAGGGUA [U12C U57C]: the self-cleavage was 1.27.

Consider GUUAUCGGUCAUAGGCCAUGGAAACUAGGAGCACCAUUUCGCCGCCAGUGAAGAAAUGAACAAAGAAAAUCUGGGCCAGGCAGGCAUCAAAAGAAAUAGUCUUGCGCUCAACCAGAAAGUCUGUAAUCAUUUUAAGGGUA [A5U U43C], for which the self-cleavage is 1.2.

In the case of GUUAACGGUCAUAGGCCAUGGAAACUAGGAGCACCAUUUCGCUGCCAGUGAUGAAAUGAACAAAGAAAAUCUGGGCCAGGCAGGCAUCAAAAGAGAUAGUCUUGCGCUCAACCAGAAAGUCUGUAAUCAUUUUAAGGGUA [A52U A95G], the self-cleavage worked out at 1.48.

As to GUUAACGGUCAUAGGCCAUGGAAACUAGGAGCACUAUUUCGCUGCCAGUGAAGAAAUGAACAAAGAAAAUCUGGGCCAGGCAGGCAUCAAAAGAAAUAGUCUUGCGCUCGACCAGAAAGUCUGUAAUCAUUUUAAGGGUA [C35U A110G], the self-cleavage came out at 0.14.

Turning to GUUAACGGUCAUAGGCCAUGGAAACUAGGAGCACCAUUUCGCUGCCAGUGAAGAAAUGAACAAAGAAAAUCUGGGCCAGGCAGGCAUCAAGAGAAAUAGUCUUGCGCUCAACCAGAAAGUCAGUAAUCAUUUUAAGGGUA [A91G U122A], the self-cleavage amounted to 0.96.

Turning to GUUAACGGUCAUAGGCCAUGGAAACUAGGAGCACCAUUUCGCUGCCAGUGAAGAAAUGAACAAAGAAAAUCUGGGCCAGGCAGGCAUCAAAAGAAAUAGUCUUGCGCUCAACCAGAAAGUCCGUAAUCAUCUUAAGGGUA [U122C U131C], the self-cleavage is 1.13.

Regarding GUUAACGGUCAUGGGCCAUGGAAACUAGGAGCACCAUUUCGCUGCCAGUGAAGAAAUGAACAAAGAAAAUCUGGGCCAGGCAGGCAUCAAAAGAAAUAGCCUUGCGCUCAACCAGAAAGUCUGUAAUCAUUUUAAGGGUA [A13G U100C], the self-cleavage was found to be 1.34.

As for GUUAACGGUCAUAGGCCAUGGAAACUAGGAGCACCAUUUCGCUGCCAGUGAAGAAAUGAACAAAGAGAAUCUGGGCCAGGCAAGCAUCAAAAGAAAUAGUCUUGCGCUCAACCAGAAAGUCUGUAAUCAUUUUAAGGGUA [A67G G83A], the self-cleavage stood at 2.38.

Consider GUUAACGGUCAUAGGCCAUGGAAACUAGGAGCACCAUUUCGCUGCCAGAGAAGAAGUGAACAAAGAAAAUCUGGGCCAGGCAGGCAUCAAAAGAAAUAGUCUUGCGCUCAACCAGAAAGUCUGUAAUCAUUUUAAGGGUA [U49A A56G], for which the self-cleavage came to 1.74.

In the case of GUUAACGGUCAUAGGCCAUGGAAUCUAGGAGCACCAUUUCGCUGCCAGUGAAGAAAUGAACAAAGAAAAUCUGGGCCAGGCAGGCAUCAAAAGAAAUAGUCUUGCGCUCAACCAGAAAGUCUGUAAUAAUUUUAAGGGUA [A24U C128A], the self-cleavage is 1.85.

GUUAACGGUCAUAGGCCACGGAAACUAGGAGCACCAUUUCGCUGCCAGUGAAGAAAUGAACAAAGAAAAUCUGGGCCAGGCAGGCAUCAAAAGAAAUAGUCUUGCGCUCAACCAGAACGUCUGUAAUCAUUUUAAGGGUA [U19C A118C]: the self-cleavage amounted to 1.15.

In the case of GUUAACGGUCAUGGGCCAUGGAAACUAGGAGCACCAUUUCGCUGCCAGUGAAGAAAUGAACAAAGAAAAUCUGGGCCAGGCAGGCUUCAAAAGAAAUAGUCUUGCGCUCAACCAGAAAGUCUGUAAUCAUUUUAAGGGUA [A13G A86U], the self-cleavage was 1.21.

As for GUUAACGGUCAUAGGCCAUGGAAACUAGGAGCACCAUUUCGCUGCCAGUGAAGAAGUGAACAUAGAAAAUCUGGGCCAGGCAGGCAUCAAAAGAAAUAGUCUUGCGCUCAACCAGAAAGUCUGUAAUCAUUUUAAGGGUA [A56G A63U], the self-cleavage was 1.68.

Turning to GUUAACGGUCAUAGGCCAUGGAAACUAGGAGCACCAUUUCGCUGCCAGUGAAGAAAUGAACAAAGAAAAUCUGGGCCAGGCAGGCAUCAAAAGAAAUGGUCUUGCGCUCAACCAGAAAGUCUGUAAUCACUUUAAGGGUA [A98G U130C], the self-cleavage is 0.41.

As for GUUAACGGUCAUAGGCCAUGGAAACUAGGAGCACCAUUUCGCUGCCAGUGAGGAAAUGAACAACGAAAAUCUGGGCCAGGCAGGCAUCAAAAGAAAUAGUCUUGCGCUCAACCAGAAAGUCUGUAAUCAUUUUAAGGGUA [A52G A64C], the self-cleavage stood at 2.64.

Turning to GUUAACGGUCAUAGGCCAUGGAAACUAGGAGCACCAUUUCGCUGCCAGUGAAGAAAUGAACAAAGAAAAUCUGGGCCAGACAGGCAUCAAAAGAAAUAGUCUUGCGCUCAACCAGAAAGUCUGUAAUCAUUCUAAGGGUA [G80A U132C], the self-cleavage worked out at 0.08.

Regarding GUUAACGGUCAUAGGCCAUGGAAACUAGGAGCACCAUUUCGCUGCCGGUGAAGAAAUGAACAAAGAAAAUCUGGGCCAGGCGGGCAUCAAAAGAAAUAGUCUUGCGCUCAACCAGAAAGUCUGUAAUCAUUUUAAGGGUA [A47G A82G], the self-cleavage came to 0.51.

Turning to GUUAACGGUCAUAGGCCAUGGAAACUAGGAGCACCAUCUCGCUGCCAGUGAAGAAAUGAACAAAGAAAAACUGGGCCAGGCAGGCAUCAAAAGAAAUAGUCUUGCGCUCAACCAGAAAGUCUGUAAUCAUUUUAAGGGUA [U38C U70A], the self-cleavage was 0.58.

Consider GUUAACGGUCAUAAGCCAUGGGAACUAGGAGCACCAUUUCGCUGCCAGUGAAGAAAUGAACAAAGAAAAUCUGGGCCAGGCAGGCAUCAAAAGAAAUAGUCUUGCGCUCAACCAGAAAGUCUGUAAUCAUUUUAAGGGUA [G14A A22G], for which the self-cleavage was 0.51.

As to GUUAACGGUCAUAGGCCAUGGAAACUAGGAGCACCAUUUCGCUGCCAGUGAAGAAAUGAACAAAGAAGAUCUGGGCCAGGCAGGCAUCAAAAGAAAUAGUCUUGCGCCCAACCAGAAAGUCUGUAAUCAUUUUAAGGGUA [A68G U108C], the self-cleavage is 0.01.

Take GUUAACGGUCAUAGGCCAUGGAUACUAGGAGCACCAUUUCGCUGCCAGUGAAGAAAUGAACAAAGAAAAUCUGGGCCAGGCAGGCUUCAAAAGAAAUAGUCUUGCGCUCAACCAGAAAGUCUGUAAUCAUUUUAAGGGUA [A23U A86U]: the self-cleavage turned out to be 1.32.

For GUUAACGGUCAUAGGCCAUGGAAACUAGGAGCACCAUUUCGCUGCCAGUGAAGAAAUGAACAAAGAAAAUCUGGGCCAGGCAGGCAUCAAAAGAAAUAGUCUUGCGCUCAACCAGAAAGUCUUUAAUCACUUUAAGGGUA [G123U U130C], the self-cleavage came to 0.44.

Regarding GUUAACGGUCAUAGGCCAUGGAAACUAGGAGCACCAUUUCGCAGCCAGUGAAGAAAUGAACAAAGAAAAUCUGGGCCAGGCAGGCAUCAAAAGAAUUAGUCUUGCGCUCAACCAGAAAGUCUGUAAUCAUUUUAAGGGUA [U43A A96U], the self-cleavage was determined as 1.72.

On to GUUAACGGUCAUAGGCCAUGGAAACUAGGAGCACCAUUUCGCUGCCAGUGAAGAAAUGAACAAAGAAAAUCUGGGCCAGGCAGGCAUCAAAAGAAAUAGUCAUGCGCUCAACCAGAAGGUCUGUAAUCAUUUUAAGGGUA [U102A A118G], for which the self-cleavage was 0.84.

As to GUUAACGGUCAUAGGCCAUGGAAACUAGGAGCACCAUUUCGCUGCCAGUGACGAAAUGAACAAAGAAAAUCUGGGCCAGGCAGGCAUCAAGAGAAAUAGUCUUGCGCUCAACCAGAAAGUCUGUAAUCAUUUUAAGGGUA [A52C A91G], the self-cleavage came out at 1.96.

Turning to GUUAACGGUCAUGGGCCAUGGAAACUAGGAGCACCAUUUCGCUGCCAGUGAAGAAAUGAACAAAGAAAAUCUGGGCCAGGCAGGCAUCAAAAGAAAUAGUCUUGCGCCCAACCAGAAAGUCUGUAAUCAUUUUAAGGGUA [A13G U108C], the self-cleavage stood at 0.05.

For the variant GUUAACGGUCAUAGGCCAUGGAAACUAGGAGCACCAUUUCGGUGCCAGUGAAGAAAUGAACAAAGAAAAUCUGGGCCAGGCAGGCAUCAAAAGAAAUAGUCUUGCGCUCAGCCAGAAAGUCUGUAAUCAUUUUAAGGGUA [C42G A111G], the self-cleavage stood at 0.

For the variant GUUAACGGUCAUAGGCCAUGGAAACUAGGAGCACCAUUUCGCUGCCAGUGAAGAAAUGAACAAAGAAAAUCUGGGCCAGGCAGGCAUCAAAAGAAAUAGUCUUGCGCUCAACCAGAAAGUCCGUAAUCAUUUUAAGGGUA [U122C], the self-cleavage is 0.93.

As for GUUAACGGUCAUAGGCCAUGGAAACUAGGAGCGCCAUUUCGCUGCCAGUGAAGAAACGAACAAAGAAAAUCUGGGCCAGGCAGGCAUCAAAAGAAAUAGUCUUGCGCUCAACCAGAAAGUCUGUAAUCAUUUUAAGGGUA [A33G U57C], the self-cleavage amounted to 0.64.

As to GUUAACGGUCAUAGGCCAUGGAAACUAGGAGCACCAUUUCCCCGCCAGUGAAGAAAUGAACAAAGAAAAUCUGGGCCAGGCAGGCAUCAAAAGAAAUAGUCUUGCGCUCAACCAGAAAGUCUGUAAUCAUUUUAAGGGUA [G41C U43C], the self-cleavage amounted to 2.19.

GUUAACGGUCAUAGGCCAUGGAAACUAGGAGCACCAUUUCGCUGCCAGUGAAGAAAUGAACAAAGAAAAACUGGGCCAGGCAGGCAUCAAAAGAAAUAGUCUUGCGCUCAACCAGAAAGUCUGUAAUCAUUCUAAGGGUA [U70A U132C]: the self-cleavage stood at 0.6.

GUUAACGGUCAUAGGCCAUGGAAACUAGGAGCACCAUUUCGCUGCCAGUGAAGAAAUGAACAAAGAAAAUCUGGGCCAGGCAGGCAUCAAAAGAACUAGUCUUGCGCUCAACCAGAAUGUCUGUAAUCAUUUUAAGGGUA [A96C A118U]: the self-cleavage worked out at 0.32.

For GUUAACGGUCAUAGGCCAUGGAAACUAGGGGCACCAUUUCGCUGCCAGUGAAGAAAUGAACAAAGAAAAUCUGGGCCAGGCAGGCAUCAAAAGAAAUAGUCUUGCGCUCAACCAGAAAGUCUGUAAUCAUUUUAAGGGAA [A30G U139A], the self-cleavage was determined as 1.46.
